T1: SBP-UNK ZnF1-6 (30-357) (human, UniProt Q9C0B0 30-357)
T1 sequence: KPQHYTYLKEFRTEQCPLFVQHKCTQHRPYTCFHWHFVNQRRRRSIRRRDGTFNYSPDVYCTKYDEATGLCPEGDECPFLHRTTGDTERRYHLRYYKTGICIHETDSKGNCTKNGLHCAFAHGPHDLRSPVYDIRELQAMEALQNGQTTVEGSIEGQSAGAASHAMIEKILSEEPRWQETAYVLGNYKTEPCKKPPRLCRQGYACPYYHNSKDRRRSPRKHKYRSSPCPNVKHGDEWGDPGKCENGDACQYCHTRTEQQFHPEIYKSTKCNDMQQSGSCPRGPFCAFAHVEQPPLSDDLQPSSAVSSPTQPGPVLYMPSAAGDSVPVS


Biological target: T1, SBP-UNK ZnF1-6 (30-357)
Test: fluorescence polarization

Binder | Kd
UACAUCGCAUUAGACAUUUU (ssRNA) [Human GTPB4 FP RNA] | 263 nM
UUCAUCGCAUUAGACAUUUU (ssRNA) [Chi58-67 gtpb4 FP RNA] | 305 nM

— article PMC11436793
